# US20260176378A1 (DYAX, published 2026)
# Target: T1, human plasma kallikrein (human, UniProt P03952 20-390; P03952 391-638)
# T1 construct: two disulfide-linked chains; NP_000883.2; also called pKal; hpKal
# Assay: ELISA, biotinylated pKal signal over streptavidin background
# T1 sequence (P03952 20-390 limits assumed, chain 1 of 2): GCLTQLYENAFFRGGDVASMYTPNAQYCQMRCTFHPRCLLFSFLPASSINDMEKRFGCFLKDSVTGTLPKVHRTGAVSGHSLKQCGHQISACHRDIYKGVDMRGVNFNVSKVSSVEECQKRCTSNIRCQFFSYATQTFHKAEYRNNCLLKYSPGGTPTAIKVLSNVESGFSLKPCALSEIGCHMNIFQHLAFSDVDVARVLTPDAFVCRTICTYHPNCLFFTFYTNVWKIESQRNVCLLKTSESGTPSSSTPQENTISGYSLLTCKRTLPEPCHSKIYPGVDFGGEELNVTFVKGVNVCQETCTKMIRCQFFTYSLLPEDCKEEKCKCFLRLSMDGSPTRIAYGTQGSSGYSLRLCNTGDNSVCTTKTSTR
# T1 sequence (P03952 391-638 limits assumed, chain 2 of 2): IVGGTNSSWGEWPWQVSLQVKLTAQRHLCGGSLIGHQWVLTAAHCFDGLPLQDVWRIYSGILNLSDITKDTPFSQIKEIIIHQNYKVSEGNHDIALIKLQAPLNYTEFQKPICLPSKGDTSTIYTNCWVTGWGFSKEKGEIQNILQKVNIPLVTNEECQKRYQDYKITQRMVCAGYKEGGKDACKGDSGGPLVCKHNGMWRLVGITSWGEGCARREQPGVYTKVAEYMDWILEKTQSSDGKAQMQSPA
row,Binder,ELISA (T/B)
1,"M27-F04 (Fab, V domains shown) VH: EVQLLESGGGLVQPGGSLRLSCAASGFTFSWYPMTWVRQAPGKGLEWVSSIGPSGGQTIYADSVKGRFTISRDNSKNTLYLQMNSLRAEDTAVYYCTTEYGDYGGGFDPWGQGTLVTVSS VL: not shown",10.5
2,"M12-B04 (Fab, V domains shown) VH: EVQLLESGGGLVQPGGSLRLSCAASGFTFSLYSMYWVRQAPGKGLEWVSRIRPSGGGTVYADSVKGRFTISRDNSKNTLYLQMNSLRAEDTAVYYCARDPLYSSGDVWGQGTTVTVSS VL: DIQMTQSPSSLSASVGDRVTITCRASQGIRNDLGWYQHKPGKAPKLLIYAASILQSGVPSRFSGTASGTDFTLTISSLQPEDFATYFCLQDYEYPLTFGGGTKLDIK",18
3,"M27-H10 (Fab, V domains shown) VH: EVQLLESGGGLVQPGGSLRLSCAASGFTFSAYQMAWVRQAPGKGLEWVSVIYSSGGYTDYADSVKGRFTISRDNSKNTLYLQMNSLRAEDTAVYYCARHNWNDGAFDIWGQGTMVTVSS VL: DIQMTQSPSSLSASVGDRVTITCRASQSISNYLNWYQQKPGKAPKFLIYAASSLQSGVPSRFSGSGSGTDFTLSISSLQPEDFATYYCQQSYSTPQTFGQGTKVEMK",12.4
4,"M28-E01 (Fab, V domains shown) VH: EVQLLESGGGLVQPGGSLRLSCAASGFTFSSYPMGWVRQAPGKGLEWVSRISSSGGMTIYADSVKGRFTISRDNSKNTLYLQMNSLRAEDTAVYYCARDDWNVGMDVWGQGTTVTVSS VL: DIQMTQSPSSLSASVGDRVTITCRASQSISSYLNWYQQKPGKAPKLLIYAASSLQSGVPSKFSGSGSGTDYTLTISSLQPEDFATYYCQQTYTTPWTFGQGTKVEIK",41
5,"M12-C09 (Fab, V domains shown) VH: EVQLLESGGGLVQPGGSLRLSCAASGFTFSSYAMVWVRQAPGKGLEWVSSIGSSGGFTLYADSVKGRFTISRDNSKNTLYLQMNSLRAEDTAVYYCASMNLGGGDAFDIWGQGTMVTVSS VL: DIQMTQSPSSLSASVGDRVTITCRASQSIGIYLNWYHQKPGKAPNLLIYGASSLQSGVPSRFSGSGSGTDFTLTISSLQPGDFATYYCQHSYSTPFTFGGGTKVEIK",7
6,"M27-B01 (Fab, V domains shown) VH: EVQLLESGGGLVQPGGSLRLSCAASGFTFSDYTMWWVRQAPGKGLEWVSSISSSGGITFYADSVKGRFTISRDNSKNTLYLQMNSLRAEDTAVYYCARSADTAMGGAFDIWGQGTMVTVSS VL: not shown",33.1
7,"M27-B12 (Fab, V domains shown) VH: EVQLLESGGGLVQPGGSLRLSCAASGFTFSWYQMMWVRQAPGKGLEWVSSISPSGGITEYADSVKGRFTISRDNSKNTLYLQMNSLRAEDTAVYYCARDRSSGWYYYGMDVWGQGTTVTVSS VL: QYELTQPPAVSVSPGQTATITCSGDKLGDEYAAWYQQKPGQSPVLVIYQDRKRPSGIPERFSGSNFGNTATLTITGTQVMDEADYYCQAWGKRNVVFGGGTKLTVL",2.3
8,"M28-D02 (Fab, V domains shown) VH: EVQLLESGGGLVQPGGSLRLSCAASGFTFSWYPMQWVRQAPGKGLEWVSYIYPSGGGTDYADSVKGRFTISRDNSKNTLYLQMNSLRAEDTATYYCATSSGWLGDAFDIWGQGTMVTVSS VL: DIQMTQSPSSLSASEGDMVTITCRTSRRIGTYLNWYQQKPGKAPKLLIYGASSLQSGVPSRFSGSGSGTDFTLTVSSLQPEDVGTYYCQQSFSSPWTFGPGTKVEIK",3.7
9,"M12-D10 (Fab, V domains shown) VH: EVQLLESGGGLVQPGGSLRLSCAASGFTFSNYPMDWVRQAPGKGLEWVSSISSSGGWTNYADSVKGRFTISRDNSKNTLYLQMNSLRAEDTAVYYCATDTSGSYLGFDYWGQGTLVTVSS VL: not shown",9.9
10,"M28-E11 (Fab, V domains shown) VH: EVQLLESGGGLVQPGGSLRLSCAASGFTFSLYDMTWVRQAPGKGLEWVSGISSSGGVTIYADSVKGRFTISRDNSKNTLYLQMNSLRAEDTAVYYCARTYYYDSSGYADAFDIWGQGTMVTVSS VL: DIQMTQSPSSVSASVGDRVTINCRASQDISNWLAWYQQKPGKAPNLLIYAASSLQTGAPSRFSGSGSGTDFTLTISSLQPEDFGTYVCQQSYSLPWTFGLGTKVEVR",29.3
11,"M27-A10 (Fab, V domains shown) VH: EVQLLESGGGLVQPGGSLRLSCAASGFTFSWYRMDWVRQAPGKGLEWVSSIWPSGGLTSYADSVKGRFTISRDNSKNTLYLQMNSLRAEDTAVYYCARGWAPGGDAFDIWGQGTMVTVSS VL: DIQMTQSPSSLSASVGDRVTITCRASQSISAYLNWYQQKPGKAPQLLMYGVGSLQSGVPSRFSGSGSGTDFTLTISSLQPEDFATYFCQQGYTTPVTFGGGTKVEIK",3.2
12,"M12-C10 (Fab, V domains shown) VH: EVQLLESGGGLVQPGGSLRLSCAASGFTFSDYEMHWVRQAPGKGLEWVSGISPSGGKTQYADSVKGRFTISRDNSKNTLYLQMNSLRAEDTAVYYCARDLKWGGRGSPDWYFDLWGRGTLVTVSS VL: QSALTQPPSVSVSPGQTASITCSGDKLGEKYVSWYQQKPGQSPVVVIYQDNKRPSGIPERFSGSNSGNTATLTISGTQAVDEADYYCQAWDSYTVVFGGGSKLTVLG",8.3
13,"M27-G04 (Fab, V domains shown) VH: EVQLLESGGGLVQPGGSLRLSCAASGFTFSAYYMVWVRQAPGKGLEWVSYISPSGGQTQYADSVKGRFTISRDNSKNTLYLQMNSLRAEDTAVYYCAREAISSSSFDYWGQGTLVTVSS VL: DIQMTQSPSSLSASVGDRVTITCRASQRISYYLTWYQQKPGKVPKLLIYAASSLESGVPSRFSGSGSGTDFTLTISNLQPEDFATYYCQQAFSTPFTFGGGTKVEIK",4.1
14,"M12-A08 (Fab, V domains shown) VH: EVQLLESGGGLVQPGGSLRLSCAASGFTFSWYYMGWVRQAPGKGLEWVSWIVSSGGLTLYADSVKGRFTISRDNSKNTLYLQMNSLRAEDTAMYYCARTTVTTGDAFDIWGQGTMVTVSS VL: DIQMTQSPSSLSASVGDRVTITCRASQSISRYLNWYQQKPGKAPKLLIYAASTLETGVPSRFSGSGSGTDFTLTITTLQPEDFVIYYCQQSYSTPYTFGQGTKLEIK",40.4
15,"M27-G01 (Fab, V domains shown) VH: EVQLLESGGGLVQPGGSLRLSCAASGFTFSLYRMFWVRQAPGKGLEWVSSIWSSGGPTMYADSVKGRFTISRDNSKNTLYLQMNSLRAEDTAVYYCAREYPSTYYFDYWGQGTLVTVSS VL: DIQMTQSPSSLSASVGDRVTITCRASQSISTYLNWYQQKPGKAPKLLIYGASSLQSGVPSRFSGSGSGTDFTLTISSLQPEDFTIYYCQQSYSDPYTFGQGTKLDIK",31.4
16,"M11-G12 (Fab, V domains shown) VH: EVQLLESGGGLVQPGGSLRLSCAASGFTFSQYPMNWVRQAPGKGLEWVSSISSSGGFTTYADSVKGRFTISRDNSKNTLYLQMNSLRAEDTAVYYCAREEQQGGFDYWGQGTLVTVSS VL: DIQMTQSPSSLSAFVGDRVSITCRASQTISVYVNWYQHKSGQAPKLLIYGASSLQSGVPSRFSGSGSGTDFTLTISSLQPEDFATYFCQQSYSIPFTFGGGTDVQIR",4.9
17,"M28-D12 (Fab, V domains shown) VH: EVQLLESGGGLVQPGGSLRLSCAASGFTFSWYTMHWVRQAPGKGLEWVSVIYPSGGPTSYADSVKGRFTISRDNSKNTLYLQMNSLRAEDTATYYCARDGSGSYLGFDYWGQGTLVTVSS VL: DIQMTQSPSSLSASVGDRVTITCRASQSIATYLNWYQQKPGRAPKLLIYAASSLQSGVPSRFVGGGSGSGTHFTLTISSLQPEDFATYYCQQSYSTRETFGQGTKVEIK",41.6
18,"M27-F11 (Fab, V domains shown) VH: EVQLLESGGGLVQPGGSLRLSCAASGFTFSSYHMMWVRQAPGKGLEWVSSIYPSGGATMYADSVKGRFTISRDNSKNTLYLQMNSLRAEDTAMYYCARDGYHYGDYTYFQHWGQGTLVTVSS VL: DIQMTQSPSFLSASVGDRVTITCRASQGISSYLAWYQQKPGKAPKLLIYAASSLQSGVPSRFSGSGSGTDFTLTISSLQPEDFATYYCQQSYNTLRTFGPGTKVDLK",10
19,"M27-E03 (Fab, V domains shown) VH: EVQLLESGGGLVQPGGSLRLSCAASGFTFSSYMMHWVRQAPGKGLEWVSGIYPSGGWTDYADSVKGRFTISRDNSKNTLYLQMNSLRAEDTATYYCARLVAGLDAFDIWGQGTMVTVSS VL: not shown",35.9
20,"M12-E06 (Fab, V domains shown) VH: EVQLLESGGGLVQPGGSLRLSCAASGFTFSQYKMLWVRQAPGKGLEWVSGIGPSGGLTAYADSVKGRFTISRDNSKNTLYLQMNSLRAEDTAVYYCARAPWFGELGMDVWGQGTTVTVSS VL: DIQMTQSPSSLSASVGDRVSITCRASQSISTYLNWYQHKPGKAPTLLIYGAFSLQSGVPSRFSGSGSGTDFALTISSLQPEDFATYYCQQSHSTPPTFGQGTRVEIK",48
21,"M28-A01 (Fab, V domains shown) VH: EVQLLESGGGLVQPGGSLRLSCAASGFTFSWYAMHWVRQAPGKGLEWVSGIYSSGGYTKYADSVKGRFTISRDNSKNTLYLQMNSLRAEDTAVYYCARDLSNGDDVFDIWGQGTMVTVSS VL: not shown",19
22,"M27-G09 (Fab, V domains shown) VH: EVQLLESGGGLVQPGGSLRLSCAASGFTFSEYDMAWVRQAPGKGLEWVSYIVSSGGFTSYADSVKGRFTISRDNSKNTLYLQMNSLRAEDTAVYYCTTWAGWIAAADYWGQGTLVTVSS VL: DIQMTQSPSSVSASVGDRITITCRTRQSISNYLNWYQQKPGEPPKLLIFAASSLQSGVPSRFSGSGTGTEFTLTISSLQPEDLAIYYCQQSYDIPFTFGQGTKLEIK",2.2
23,"M28-C03 (Fab, V domains shown) VH: EVQLLESGGGLVQPGGSLRLSCAASGFTFSYYQMGWVRQAPGKGLEWVSSIYPSGGMTDYADSVKGRFTISRDNSKNTLYLQMNSLRAEDTAVYYCTRGSPWGDDAFDIWGQGTMVTVSS VL: DIQMTQSPSSLSASVGDRVTITCRASQSINFYLNWYQQKPGKAPKLLIYVASSLESGVPSRFSGSASGTEFTLTISSLQPEDFATYYCLQSYSAPYTFGQGTKVEIT",2.2
